Consider two substances from patent US20050226876A1.

The target of assay [1] is Fcγ receptors on human monocytes (FcγRI and RII). Briefly: FACS on monocytes from human blood, antibody 10 µg/ml; no antibody: 8.5.
Assay [2] has as its target Fcγ receptors on human granulocytes (FcγRII and RIII). Briefly: FACS on granulocytes from human blood, antibody 10 µg/ml; no antibody: 1.2.
In assay [3] the target is human complement factor C1q (human) (UniProt P02745). Briefly: C1q ELISA, antibody coated; background OD405 0.079. (In general: ELISA stands for enzyme-linked immunosorbent assay.)
The target in assay [4] is human complement factor C3 (from human pooled serum) (human) (UniProt P01024). Briefly: C3 ELISA, antibody coated, human pooled serum; background OD405 0.098.
The target in assay [5] is Fcγ receptor on human NK cells (FcγRIII) (human) (UniProt P08637). Briefly: FACS on NK cells from human blood, antibody 10 µg/ml; no antibody: 0.03.
Chain of Fcγ receptor on human NK cells (FcγRIII) (human) (P08637 17-254): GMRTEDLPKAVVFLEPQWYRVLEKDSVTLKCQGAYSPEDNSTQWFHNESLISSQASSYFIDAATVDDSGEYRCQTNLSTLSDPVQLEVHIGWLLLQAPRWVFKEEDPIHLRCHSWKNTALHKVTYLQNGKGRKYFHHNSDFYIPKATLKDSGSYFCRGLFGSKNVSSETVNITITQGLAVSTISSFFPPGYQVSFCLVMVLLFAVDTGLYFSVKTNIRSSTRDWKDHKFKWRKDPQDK

Chain of human complement factor C3 (from human pooled serum) (human) (P01024 23-1663 limits assumed): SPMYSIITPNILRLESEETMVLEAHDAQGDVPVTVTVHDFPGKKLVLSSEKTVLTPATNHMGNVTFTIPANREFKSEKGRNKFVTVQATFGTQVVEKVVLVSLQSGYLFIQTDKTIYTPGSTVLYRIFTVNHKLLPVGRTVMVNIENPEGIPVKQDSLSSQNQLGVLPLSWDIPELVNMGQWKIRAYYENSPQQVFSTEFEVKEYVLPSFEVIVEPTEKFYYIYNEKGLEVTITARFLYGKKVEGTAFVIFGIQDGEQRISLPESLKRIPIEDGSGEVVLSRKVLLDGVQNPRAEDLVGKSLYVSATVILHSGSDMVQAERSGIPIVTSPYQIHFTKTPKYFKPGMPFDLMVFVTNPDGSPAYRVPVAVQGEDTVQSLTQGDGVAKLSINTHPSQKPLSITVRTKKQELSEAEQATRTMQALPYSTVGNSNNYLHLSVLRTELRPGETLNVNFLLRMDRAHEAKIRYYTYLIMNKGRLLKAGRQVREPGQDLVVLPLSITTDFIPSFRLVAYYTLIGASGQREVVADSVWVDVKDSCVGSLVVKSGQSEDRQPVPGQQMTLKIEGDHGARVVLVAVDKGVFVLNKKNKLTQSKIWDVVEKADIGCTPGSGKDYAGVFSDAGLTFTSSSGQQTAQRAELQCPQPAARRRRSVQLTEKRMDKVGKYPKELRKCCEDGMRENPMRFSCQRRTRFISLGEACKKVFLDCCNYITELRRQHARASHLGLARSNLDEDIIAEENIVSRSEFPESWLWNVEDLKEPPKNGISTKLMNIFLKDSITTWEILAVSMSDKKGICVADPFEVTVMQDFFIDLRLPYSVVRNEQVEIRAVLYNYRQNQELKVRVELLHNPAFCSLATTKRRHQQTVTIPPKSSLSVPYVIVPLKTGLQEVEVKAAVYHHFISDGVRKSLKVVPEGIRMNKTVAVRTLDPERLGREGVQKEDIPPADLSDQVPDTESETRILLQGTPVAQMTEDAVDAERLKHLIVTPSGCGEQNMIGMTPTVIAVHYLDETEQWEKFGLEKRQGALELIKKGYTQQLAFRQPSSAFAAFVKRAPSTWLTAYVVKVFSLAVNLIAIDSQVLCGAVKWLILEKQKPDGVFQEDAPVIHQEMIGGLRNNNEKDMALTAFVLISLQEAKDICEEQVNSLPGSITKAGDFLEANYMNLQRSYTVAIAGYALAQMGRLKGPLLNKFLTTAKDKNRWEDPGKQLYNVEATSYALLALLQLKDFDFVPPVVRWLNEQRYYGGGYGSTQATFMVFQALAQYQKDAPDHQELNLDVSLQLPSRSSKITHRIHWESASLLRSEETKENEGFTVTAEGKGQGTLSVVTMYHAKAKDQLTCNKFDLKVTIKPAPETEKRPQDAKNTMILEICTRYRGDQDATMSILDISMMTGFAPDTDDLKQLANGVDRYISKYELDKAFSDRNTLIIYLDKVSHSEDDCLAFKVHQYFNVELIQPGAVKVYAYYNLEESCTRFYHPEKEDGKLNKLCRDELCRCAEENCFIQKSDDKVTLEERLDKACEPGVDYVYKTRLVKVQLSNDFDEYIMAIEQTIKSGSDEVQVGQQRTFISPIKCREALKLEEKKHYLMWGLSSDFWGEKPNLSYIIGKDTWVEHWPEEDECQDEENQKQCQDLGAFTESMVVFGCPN
Chain of human complement factor C1q (human) (P02745 23-245 limits assumed, chain 1 of 3): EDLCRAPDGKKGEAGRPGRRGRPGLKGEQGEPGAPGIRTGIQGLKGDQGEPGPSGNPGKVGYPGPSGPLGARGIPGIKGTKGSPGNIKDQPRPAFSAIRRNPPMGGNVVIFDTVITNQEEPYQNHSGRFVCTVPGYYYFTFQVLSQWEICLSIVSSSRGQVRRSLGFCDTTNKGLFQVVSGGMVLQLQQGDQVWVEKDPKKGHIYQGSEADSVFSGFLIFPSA
Chain of human complement factor C1q (human) (P02746 28-253 limits assumed, chain 2 of 3, further chain): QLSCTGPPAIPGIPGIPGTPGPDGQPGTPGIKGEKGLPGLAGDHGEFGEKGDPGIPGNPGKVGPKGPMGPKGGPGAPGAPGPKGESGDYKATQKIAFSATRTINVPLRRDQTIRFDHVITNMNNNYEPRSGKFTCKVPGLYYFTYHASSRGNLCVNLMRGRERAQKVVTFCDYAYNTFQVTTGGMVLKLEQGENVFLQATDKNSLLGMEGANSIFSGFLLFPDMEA
Chain of human complement factor C1q (human) (P02747 29-245 limits assumed, chain 3 of 3, further chain): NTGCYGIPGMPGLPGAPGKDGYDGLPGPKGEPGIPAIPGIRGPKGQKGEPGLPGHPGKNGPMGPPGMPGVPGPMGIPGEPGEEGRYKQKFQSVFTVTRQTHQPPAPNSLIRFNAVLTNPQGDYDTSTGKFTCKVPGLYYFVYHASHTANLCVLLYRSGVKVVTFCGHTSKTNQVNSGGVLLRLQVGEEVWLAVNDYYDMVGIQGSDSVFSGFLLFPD

Substance “HuMab 002 Fc variant IgG4v1 (S228P; L235E) (antibody)” showed a % monocytes binding antibody in assay [1] of 14.5%. Besides, in assay [2], the % granulocytes binding antibody amounted to 1.6%.
Regarding “human IgG4 (CLB, the Netherlands), negative control (antibody)”, the figures for the Bmax (OD405 at 10 µg/ml) in assay [3] and in assay [4] were 0.222 OD405 and 0.182 OD405, respectively. The % NK cells binding antibody in assay [5] stood at 0.06%. The substance also registered a % monocytes binding antibody in assay [1] of 9.4%.
